Substitutions are numbered along the chain they refer to. Where “and” joins values, the source holds several entries; their conditions need not be identical. Identical values can stand only once.
B1: αF1Ig AM2 (antibody, V domains shown)
VH: QVQLVESGGGLVKPGGSLRLSCAASGFTFSDYYMSWIRQAPGKGLEWVSYISGSGSIIYYADSVKGRFTISRDNAKNSLYLQMNSLRAEDTAVYYCAKEIRKHDAFDIWGQGTMVTVSS
VL: DIRMTQSPSSLSASVGDRVTITCRASRSISGYLNWYQQKPGKAPKLLIYATSSLQSGVPSRFSGSGSGTDFTLTISSLQPEDFATYYCQQSYSTPSSFGQGTKVDIK
notes: also called aF1Ig AM2; source: HEK293 cells, produced by ATUM; purified IgG
B2: αF1Ig 2 (antibody, V domains shown)
VH: B1 VH with G53S, K102R
VL: not shown
notes: also called aF1Ig 2; aF1_2; source: HEK293 cells, produced by ATUM; purified IgG
B3: αF1Ig 8 (antibody, V domains shown)
VH: QVQLQQWGAGLLKPSETLSLTCAVYGGSFSGYYWSWIRQPPGKGLEWIGEINHSGNTNYNPSLKSRVTISVDTSKNQFSLQLNSVTPEDTAVYYCARTRGYFDLWGRGTLVTVSS
VL: QPVLTQSPSVSVSPGQTASITCSGDKLGDRYASWYQQKPGQSPVLVIYQDTKRPSGIPERFSGSNSGNTATLTISGTQAMDEADYYCQSWDSSAAVFGTGTKLTVL
notes: also called aF1Ig 8; aF1_8; source: HEK293 cells, produced by ATUM; purified IgG
B4: αF1Ig AM8 (antibody, V domains shown)
VH: B3 VH with H53R
VL: B3 VL with D29G
notes: also called aF1Ig AM8; source: HEK293 cells, produced by ATUM; purified IgG
B5: αF1Ig 2 (parental anti-F1 immunoglobulin G type 1) (antibody, V domains shown)
VH: B1 VH with G53S, K102R
VL: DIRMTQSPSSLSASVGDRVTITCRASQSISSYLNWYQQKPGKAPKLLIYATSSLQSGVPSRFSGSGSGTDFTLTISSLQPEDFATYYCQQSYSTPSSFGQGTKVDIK
notes: IgG1; also called parental IgG 2; original anti-F1 IgG 2; source: HEK293 cells, produced by ATUM, purified IgG
B6: αF1Ig AM2 (affinity matured anti-F1 immunoglobulin G type 1) (antibody, V domains shown)
VH: B1 VH
VL: B1 VL
notes: IgG1; also called αF1 AM2; source: HEK293 cells, produced by ATUM, purified IgG
B7: αF1Ig AM8 (affinity matured anti-F1 immunoglobulin G type 1) (antibody, V domains shown)
VH: B3 VH with H53R
VL: B3 VL with D29G
notes: IgG1; also called aF1Ig AM8; αF1 AM8; source: HEK293 cells, produced by ATUM, purified IgG
B8: αF1Ig 8 (parental anti-F1 immunoglobulin G type 1) (antibody, V domains shown)
VH: B3 VH
VL: B3 VL
notes: IgG1; also called parental IgG 8; original anti-F1 IgG 8; source: HEK293 cells, produced by ATUM, purified IgG

Biological target: T1, recombinant F1 antigen of Y. pestis, monomer enriched (Yersinia pestis, strain , UniProt P26948)
T1 construct: source: expressed in E. coli; BEI NR-44223, monomer enriched
Test: SPR
Settings: both partners purified

Row | Binder | Kd
1 | B1 | 2.4 nM and 2.3 nM and 1.2 nM
2 | B2 | 2.2 nM and 1.3 nM and 2.8 nM and 1.2 nM
3 | B3 | 5.6 nM and 9.7 nM and 7.4 nM and 6 nM
4 | B4 | 1.5 nM and 2.4 nM and 1.3 nM and 1.6 nM

Biological target: T2, soluble recombinant F1 antigen, monomer-enriched (Yersinia pestis, strain , UniProt P26948)
T2 construct: source: bought: BEI Resources NR-44223, expressed in E. coli, monomer enriched
Test: SPR
Settings: both partners purified

Row | Binder | Kd
5 | B5 | 1.9 nM
6 | B6 | 2.7 nM
7 | B7 | 1.9 nM
8 | B8 | 7.4 nM
